Experimental data reported in patent US20250171806A1 (BROAD INSTITUTE, published 2025).

Experiments:
Experiment in all cases: co-immunoprecipitation from HEK293 lysate: Flag IP of NS3, HA Western blot
[1] = biological target: T1, HA-tagged Galleria mellonella (Gm) densovirus capsid protein VP2 (Galleria mellonella (Gm) densovirus, UniProt Q90125 277-811)
T1 construct: also called Gm VP2; GmDNV capsid VP protein 2
T1 sequence: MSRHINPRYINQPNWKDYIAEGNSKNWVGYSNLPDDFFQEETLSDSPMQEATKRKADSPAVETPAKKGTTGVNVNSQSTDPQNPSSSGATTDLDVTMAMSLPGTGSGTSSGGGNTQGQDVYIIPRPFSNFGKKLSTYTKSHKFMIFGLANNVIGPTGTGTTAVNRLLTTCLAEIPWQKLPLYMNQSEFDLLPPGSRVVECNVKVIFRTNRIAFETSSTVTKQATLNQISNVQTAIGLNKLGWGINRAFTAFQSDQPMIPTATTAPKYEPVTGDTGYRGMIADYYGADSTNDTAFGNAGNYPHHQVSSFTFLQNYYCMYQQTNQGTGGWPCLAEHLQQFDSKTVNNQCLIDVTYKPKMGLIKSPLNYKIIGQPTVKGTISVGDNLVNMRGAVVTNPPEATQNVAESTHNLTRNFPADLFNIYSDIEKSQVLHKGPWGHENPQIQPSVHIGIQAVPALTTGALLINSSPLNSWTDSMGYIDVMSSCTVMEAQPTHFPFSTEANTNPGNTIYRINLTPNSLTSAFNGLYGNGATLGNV

[2] = biological target: T2, HA-tagged Galleria mellonella (Gm) densovirus capsid protein VP3 (Galleria mellonella (Gm) densovirus, UniProt Q90125 324-811)
T2 construct: also called Gm VP3; GmDNV capsid VP protein 3
T2 sequence: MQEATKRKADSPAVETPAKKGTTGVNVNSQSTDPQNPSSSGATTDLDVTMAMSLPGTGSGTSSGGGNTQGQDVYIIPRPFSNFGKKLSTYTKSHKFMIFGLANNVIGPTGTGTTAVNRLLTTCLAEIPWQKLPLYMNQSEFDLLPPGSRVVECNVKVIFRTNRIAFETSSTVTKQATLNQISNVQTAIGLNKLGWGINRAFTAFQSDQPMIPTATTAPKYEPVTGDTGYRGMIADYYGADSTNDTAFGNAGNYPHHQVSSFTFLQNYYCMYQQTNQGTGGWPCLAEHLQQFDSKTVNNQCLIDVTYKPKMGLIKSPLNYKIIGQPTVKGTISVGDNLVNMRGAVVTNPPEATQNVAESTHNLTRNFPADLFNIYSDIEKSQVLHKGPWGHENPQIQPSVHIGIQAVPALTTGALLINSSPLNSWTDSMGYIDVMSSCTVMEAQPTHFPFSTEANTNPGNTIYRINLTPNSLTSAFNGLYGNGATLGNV

[3] = biological target: T3, HA-tagged Galleria mellonella (Gm) densovirus capsid protein VP4 (Galleria mellonella (Gm) densovirus, UniProt Q90125 375-811)
T3 construct: also called Gm VP4; GmDNV capsid VP protein 4
T3 sequence: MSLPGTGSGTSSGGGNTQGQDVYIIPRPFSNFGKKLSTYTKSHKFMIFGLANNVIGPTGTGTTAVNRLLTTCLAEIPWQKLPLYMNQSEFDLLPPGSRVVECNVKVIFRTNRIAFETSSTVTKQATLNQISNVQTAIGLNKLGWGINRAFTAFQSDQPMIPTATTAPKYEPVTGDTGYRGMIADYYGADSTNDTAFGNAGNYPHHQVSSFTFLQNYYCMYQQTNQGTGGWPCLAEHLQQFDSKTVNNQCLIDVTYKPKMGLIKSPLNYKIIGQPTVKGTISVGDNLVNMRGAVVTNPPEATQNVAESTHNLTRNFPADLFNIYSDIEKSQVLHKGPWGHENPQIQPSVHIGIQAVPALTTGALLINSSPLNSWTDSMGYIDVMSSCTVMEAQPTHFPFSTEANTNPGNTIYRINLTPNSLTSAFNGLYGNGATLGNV

[4] = biological target: T4, HA-tagged Galleria mellonella (Gm) densovirus capsid protein VP1 (Galleria mellonella (Gm) densovirus, UniProt Q90125 1-811)
T4 construct: also called Gm VP1; GmDNV capsid VP protein 1
T4 sequence: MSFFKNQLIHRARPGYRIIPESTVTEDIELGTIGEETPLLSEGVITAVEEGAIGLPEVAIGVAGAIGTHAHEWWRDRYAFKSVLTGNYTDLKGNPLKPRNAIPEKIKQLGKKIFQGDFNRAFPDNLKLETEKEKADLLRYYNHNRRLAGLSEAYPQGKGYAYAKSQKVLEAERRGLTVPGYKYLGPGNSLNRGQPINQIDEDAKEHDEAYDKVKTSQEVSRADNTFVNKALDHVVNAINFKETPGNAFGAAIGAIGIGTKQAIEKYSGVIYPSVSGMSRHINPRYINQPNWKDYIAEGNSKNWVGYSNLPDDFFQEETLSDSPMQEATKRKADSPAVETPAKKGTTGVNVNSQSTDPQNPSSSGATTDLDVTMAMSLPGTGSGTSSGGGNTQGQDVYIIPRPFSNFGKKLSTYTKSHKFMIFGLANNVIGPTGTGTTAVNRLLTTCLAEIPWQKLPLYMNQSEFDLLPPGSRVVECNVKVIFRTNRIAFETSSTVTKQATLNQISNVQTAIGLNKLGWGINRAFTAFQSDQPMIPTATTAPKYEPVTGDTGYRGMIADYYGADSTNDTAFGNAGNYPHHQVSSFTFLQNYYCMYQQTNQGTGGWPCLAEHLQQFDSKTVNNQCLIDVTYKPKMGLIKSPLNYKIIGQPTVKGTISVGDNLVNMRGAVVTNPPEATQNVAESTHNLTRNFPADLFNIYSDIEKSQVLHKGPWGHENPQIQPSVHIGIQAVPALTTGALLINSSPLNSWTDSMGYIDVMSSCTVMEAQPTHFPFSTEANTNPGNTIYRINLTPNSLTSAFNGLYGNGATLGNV

Measured: binding result

B1: Flag-tagged Galleria mellonella (Gm) densovirus nonstructural protein NS3 (other)
chain: MSIAKFLYVRRLFEKVYNPKSLFYEAYKCARLNGLDMSILPKPILNMSHDMDTQIIACGEDINHTLAIEELEHWDWSKQNRLPFQLYLAVMNLTEIPEWLDETMLIECVYYFKELINHRDPYDTDELNTWNANGKPFKTMWKICKFCYNNCEDPDDYRFIYNRTVFVEDVEEIITRLQDSDSWCQLCHTCPLFNISAIYDNSPNNKQRRYSSSDDDDYMSNSFFVKHPNSRH
notes: also called Gm NS3; GmNS3; not shown: Flag tag, at either the N or the C terminus
binds: all assays above

B2: Gm NS3 with C-terminal Flag tag (other)
chain: MSIAKFLYVRRLFEKVYNPKSLFYEAYKCARLNGLDMSILPKPILNMSHDMDTQIIACGEDINHTLAIEELEHWDWSKQNRLPFQLYLAVMNLTEIPEWLDETMLIECVYYFKELINHRDPYDTDELNTWNANGKPFKTMWKICKFCYNNCEDPDDYRFIYNRTVFVEDVEEIITRLQDSDSWCQLCHTCPLFNISAIYDNSPNNKQRRYSSSDDDDYMSNSFFVKHPNSRH
notes: also called NS3 when the Flag tag was present on the C-terminus; not shown: C-terminal Flag tag
binds: all assays above
